T1: human IL-2Rβ (CD122 protein, Fc Tag) (27-239) (human, UniProt P14784 27-239)
T1 construct: range 27-239; Bought protein; also called IL-2Rβ subunit; IL-2Rβ-Fc; not shown: Fc Tag of the bought protein (ACRObiosystems ILB-H5253)
T1 sequence (looked up): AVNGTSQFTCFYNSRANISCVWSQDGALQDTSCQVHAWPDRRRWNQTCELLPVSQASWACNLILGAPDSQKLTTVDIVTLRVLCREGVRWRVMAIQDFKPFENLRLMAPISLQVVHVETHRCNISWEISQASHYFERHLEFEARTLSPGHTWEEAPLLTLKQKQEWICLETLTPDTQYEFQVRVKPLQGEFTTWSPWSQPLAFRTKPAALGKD


These binders were tested against T1, human IL-2Rβ (CD122 protein, Fc Tag) … (assay: pH-dependent ELISA (Examples 9-12)).
Experimental: For each peptide to be assayed, 16 ELISA plate wells were coated with neutravidin ([…] in PBS pH7.2) at 50 μL/well. The coated wells were incubated at 25° C. for at least 1 h.
The neutravidin was removed from each well. Three-hundred (300) μL of blocking buffer (1×PBS pH 7.2, 1% BSA) was added to each well of the neutravidin-coated plates. All plates were covered and maintained at 25° C. for 1 h or overnight at 4° C.
The biotinylated peptides were diluted to 1 μM in PBT pH 7.2 buffer and 50 uL was added to the appropriate 16 wells (8 for each binding pH). The plates were incubated at 25° C. for at least 1 h.

Row | Binder | decrease in binding at pH 7.5 compared to pH 6.0 [%]
1 | LEFMWIQDCGMAEVGELCEL [SEQ ID NO 468] | > 15
2 | QDCRKANVGELCYLDWDSPT [SEQ ID NO 476] | > 15
3 | LLCRMAHLGELCDL [SEQ ID NO 448] | > 15
4 | QDGAKLKECRVAQVGELCEF [SEQ ID NO 427] | > 15
5 | LDCRIAPLGELCDMFISAFN [SEQ ID NO 436] | > 15
6 | LSCSIAQVGELCDL [SEQ ID NO 456] | > 15
7 | DEMQDCQIAQVGELCDLGLE [SEQ ID NO 470] | > 15
8 | RTMKQCSIAQVGELCDLAVT [SEQ ID NO 429] | > 15
9 | KDCRTALIGDLCDLTLHLGG [SEQ ID NO 425] | > 15
10 | QVLKNCRLAHIGELCYLSER [SEQ ID NO 428] | > 15
11 | TYAKLVNYCWTAQLGELCYL [SEQ ID NO 461] | > 15
12 | GVKDGWEDCGIAQVGELCVL [SEQ ID NO 402] | > 15
13 | LRCRMAQVGDLCDLDRAWDW [SEQ ID NO 454] | > 15
14 | EDCWMAQVGQLCDL [SEQ ID NO 403] | > 15
15 | SWVNNCRMAQVGELCDLPNW [SEQ ID NO 460] | > 15
16 | KSCARAQVGELCYIEGAEDA [SEQ ID NO 430] | > 15
17 | GLNPMIPGCQMAQVGELCEL [SEQ ID NO 463] | > 15
18 | EYFSHDQDCQTAQLGELCKM [SEQ ID NO 471] | > 15
19 | LECRLARLGDLCYL [SEQ ID NO 443] | > 15

Further lines, results first:

Row | decrease in binding at pH 7.5 compared to pH 6.0 [%] | Binder
20 | > 15 | GRFYPCNMAQVGELCELMEY [SEQ ID NO 568]
21 | > 15 | QPCRNAHLGQLCDLQTWTNS [SEQ ID NO 505]
22 | > 15 | SVWQECSMAQVGDLCELHIG [SEQ ID NO 495]
23 | > 15 | YPCRMADVGELCDL [SEQ ID NO 569]
24 | > 15 | VLEVLRQECRMAQVGELCDL [SEQ ID NO 494]
25 | > 15 | VDCWIAQLGELCELEDGRRQ [SEQ ID NO 524]
26 | > 15 | WQCRWAQVGELCDLSSENDN [SEQ ID NO 531]
27 | > 15 | QDCRLAHLGDLCDLWSPRQN [SEQ ID NO 477]
28 | > 15 | QNCSTAKVGELCDLLMEGTE [SEQ ID NO 503]
29 | > 15 | WGRQECRFANVGDLCDVSNY [SEQ ID NO 491]
30 | > 15 | YLCQVAGVGELCDLEESGRN [SEQ ID NO 566]
31 | > 50 | QDCRMAHLGELCTL [SEQ ID NO 480]
32 | > 15 | GYEPIMRACRNAQVGDLCDL [SEQ ID NO 506]
33 | > 15 | TWAYDCRTAEVGELCDLPVQ [SEQ ID NO 551]
34 | > 15 | FIAQKCRLAKVGELCDLGYS [SEQ ID NO 500]
35 | > 15 | YDCQKAQLGELCDLRYSVRD [SEQ ID NO 536]
36 | > 15 | YDCRMAKVGDLCDLWSVWGR [SEQ ID NO 548]
37 | > 15 | AVKRFRQDCRTAPVGTLCDL [SEQ ID NO 485]
38 | > 15 | YACRFAHVGDLCDL [SEQ ID NO 534]
39 | > 15 | WPMSQFQKCATAQVGELCEL [SEQ ID NO 499]
40 | > 15 | LLSYPCRMAQVGELCDIAMK [SEQ ID NO 570]
41 | > 15 | EQTRSGYACRTAQVGELCDL [SEQ ID NO 535]
42 | > 15 | NLRQNCRDAPVGELCDLEWI [SEQ ID NO 501]
43 | > 15 | SDCSVANVGDLCNL [SEQ ID NO 515]
44 | > 15 | VTGWTYRDCRIANVGDLCEL [SEQ ID NO 507]
45 | > 15 | VLCRIAQVGQLCEL [SEQ ID NO 526]
46 | > 15 | QDCRMAQVGHLCDL [SEQ ID NO 481]

From patent US20230192767A1 (MEDIKINE, published 2023)
